Assays:
[1] = target: LexA-SoxS bait fusion protein (pGILDA-SoxS), wild type SoxS (Escherichia coli) (UniProt P0A9E2); assay: two-hybrid
[2] = target: T1, LexA-SoxS bait fusion protein (pGILDA-SoxS), wild type SoxS (Escherichia coli, UniProt P0A9E2 1-107); assay: two-hybrid
T1 sequence (looked up): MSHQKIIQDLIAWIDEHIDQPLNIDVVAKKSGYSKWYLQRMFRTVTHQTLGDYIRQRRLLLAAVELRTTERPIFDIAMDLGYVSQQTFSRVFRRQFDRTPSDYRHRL

B42AD-αCTD prey fusion protein (pB42AD-αCTD) (domain or fragment), sequence (A1AGI6 whole entry, the tested form may be a part): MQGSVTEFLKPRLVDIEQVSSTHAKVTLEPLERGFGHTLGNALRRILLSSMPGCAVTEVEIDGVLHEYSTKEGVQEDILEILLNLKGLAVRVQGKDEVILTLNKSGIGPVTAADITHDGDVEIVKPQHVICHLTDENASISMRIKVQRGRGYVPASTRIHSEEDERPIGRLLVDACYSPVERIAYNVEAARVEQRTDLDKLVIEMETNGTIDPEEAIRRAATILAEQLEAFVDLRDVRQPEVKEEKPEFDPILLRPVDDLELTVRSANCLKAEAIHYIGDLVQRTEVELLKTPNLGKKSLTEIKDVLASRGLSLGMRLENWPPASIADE

Row | Molecule | induction ratio of reporter β-galactosidase [1] | induction ratio of reporter β-galactosidase [2]
1 | B42AD-αCTD prey fusion protein (pB42AD-αCTD) (domain or fragment) | 25 | 
2 | B42AD-σ^70 R4 prey fusion protein (pB42AD-σ^70 R4), wild type region 4 of σ^70 (domain or fragment, Escherichia coli, UniProt P00579 530-613, looked up) LPLDSATTESLRAATHDVLAGLTAREAKVLRMRFGIDMNTDYTLEEVGKQFDVTRERIRQIEAKALRKLRHPSRSEVLRSFLDD |  | 14
